One block for each binder: values may come before it.
Assays:
Test in all cases: split-Trp growth complementation in trp1 yeast EGY48
^187Ntrp-Sec62p = target: T1, ^187Ntrp-Sec62p (Saccharomyces cerevisiae, UniProt P21825 2-274)
T1 construct: whole, on cells; Expressed in yeast EGY48 from pRS315CUP1 under the PCUP1-promoter; not shown: 6x His tag at the N-terminus of Ntrp
T1 sequence: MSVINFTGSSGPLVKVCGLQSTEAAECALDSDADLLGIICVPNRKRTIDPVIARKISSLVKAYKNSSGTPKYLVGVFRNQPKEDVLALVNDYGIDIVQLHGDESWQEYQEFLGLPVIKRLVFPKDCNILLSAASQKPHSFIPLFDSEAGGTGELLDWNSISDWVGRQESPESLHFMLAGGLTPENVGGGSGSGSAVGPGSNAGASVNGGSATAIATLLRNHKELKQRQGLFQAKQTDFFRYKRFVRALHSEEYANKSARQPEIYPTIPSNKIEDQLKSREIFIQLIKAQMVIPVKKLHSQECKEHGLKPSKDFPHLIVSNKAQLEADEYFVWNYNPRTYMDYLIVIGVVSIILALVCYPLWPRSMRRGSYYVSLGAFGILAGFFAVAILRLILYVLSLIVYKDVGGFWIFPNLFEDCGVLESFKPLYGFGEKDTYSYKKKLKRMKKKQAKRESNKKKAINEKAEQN
Text: (§1) To monitor the interaction between Sec62p and Sec63p, trp1 yeast strains expressing pairs of matching Nₜᵣₚ-Sec62p and Sec63p-Cₜᵣₚ fusion proteins were spotted on selective plates lacking tryptophan (FIG. 5). […] To verify that the observed complementation of tryptophan auxotrophy is a result of the interaction between the Sec62p and Sec63p moieties of the fusion proteins, we fused the C-terminal fragments of split-Trp⁴⁴ and split-Trp¹⁸⁷ to the cytoplasmic site of Ste14p (FIG. 4B). Ste14p is a membrane protein of the ER that is known to interact with neither Sec62p nor Sec63p (FIG. 4B) (cf. Wittke, S., Lewke, N., Muller, S., and Johnsson, N. (1999), Mol Biol Cell 10, 2519-2530). No growth on plates lacking tryptophan was observed when matching pairs of Sec62p and Ste14p fusion proteins were co-expressed at 23° C. or 30° C. for 10 days (FIG. 5). The cellular amount of Ste14p-⁴⁴Cₜᵣₚ is roughly 2-3 fold lower than the amount of Sec63p-⁴⁴Cₜᵣₚ as determined by western blotting (data not shown). Since this relatively small effect cannot account for the clear growth difference between the strains expressing either ⁴⁴Nₜᵣₚ-Sec62p/Sec63p-⁴⁴Cₜᵣₚ or ⁴⁴Nₜᵣₚ-Sec62p/Ste14p-⁴⁴Cₜᵣₚ, we conclude that the ⁴⁴Nₜᵣₚ-Sec62p/Sec63p-⁴⁴Cₜᵣₚ interaction signal is specific.

Sec63p-^44Ctrp = target: T2, Sec63p-^44Ctrp (Saccharomyces cerevisiae, UniProt P14906 1-663)
T2 construct: whole, on cells; Expressed in yeast EGY48 from pRS316CUP1 under the PCUP1-promoter; also called Sec63p-Ctrp; SEC63-^44Ctrp; not shown: HA tag at the C terminus of Trp1p
T2 sequence: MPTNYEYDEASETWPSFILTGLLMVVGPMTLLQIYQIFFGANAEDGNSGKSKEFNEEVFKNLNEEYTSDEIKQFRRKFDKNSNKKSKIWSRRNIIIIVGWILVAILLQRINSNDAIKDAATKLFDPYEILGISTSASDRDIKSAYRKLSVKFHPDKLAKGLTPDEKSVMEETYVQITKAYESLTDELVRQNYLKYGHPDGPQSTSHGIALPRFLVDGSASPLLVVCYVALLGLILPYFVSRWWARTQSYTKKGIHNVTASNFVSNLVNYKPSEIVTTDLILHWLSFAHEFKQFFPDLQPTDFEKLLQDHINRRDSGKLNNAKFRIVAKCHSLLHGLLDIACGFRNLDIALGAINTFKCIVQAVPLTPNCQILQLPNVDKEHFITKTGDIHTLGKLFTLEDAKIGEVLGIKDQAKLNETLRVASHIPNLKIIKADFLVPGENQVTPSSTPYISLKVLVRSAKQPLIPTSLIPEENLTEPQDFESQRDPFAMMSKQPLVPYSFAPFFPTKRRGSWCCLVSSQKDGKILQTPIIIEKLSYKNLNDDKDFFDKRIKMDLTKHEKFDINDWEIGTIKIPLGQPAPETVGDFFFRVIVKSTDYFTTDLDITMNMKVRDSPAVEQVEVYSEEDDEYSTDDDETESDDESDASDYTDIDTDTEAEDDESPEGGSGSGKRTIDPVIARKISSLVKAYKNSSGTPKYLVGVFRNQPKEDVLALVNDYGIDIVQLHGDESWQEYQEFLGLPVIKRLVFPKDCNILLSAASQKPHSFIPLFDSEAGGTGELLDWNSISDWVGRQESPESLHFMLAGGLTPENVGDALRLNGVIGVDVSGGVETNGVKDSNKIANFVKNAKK
Text: as §1

Ste14p-^44Ctrp = target: T3, Ste14p-^44Ctrp (Saccharomyces cerevisiae, UniProt P32584 1-239)
T3 construct: whole, on cells; Control fusion; Ctrp fused to the cytoplasmic site of Ste14p; also called Ste14p-Ctrp; STE14-^44Ctrp; not shown: HA tag at the C terminus of Trp1p
T3 sequence: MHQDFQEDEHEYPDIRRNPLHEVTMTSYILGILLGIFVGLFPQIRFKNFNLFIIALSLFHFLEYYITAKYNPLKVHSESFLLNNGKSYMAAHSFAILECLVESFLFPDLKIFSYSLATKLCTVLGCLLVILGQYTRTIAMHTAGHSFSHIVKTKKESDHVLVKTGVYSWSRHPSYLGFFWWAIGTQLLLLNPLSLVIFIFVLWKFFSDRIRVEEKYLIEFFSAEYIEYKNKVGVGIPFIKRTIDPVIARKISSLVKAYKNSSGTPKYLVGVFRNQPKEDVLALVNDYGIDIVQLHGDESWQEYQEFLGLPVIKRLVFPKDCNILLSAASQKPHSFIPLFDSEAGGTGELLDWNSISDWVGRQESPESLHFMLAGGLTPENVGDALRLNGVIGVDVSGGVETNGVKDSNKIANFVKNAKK
Text: as §1

binding result (^187Ntrp-Sec62p): no binding
B1: Ste14p-^187Ctrp (other, Saccharomyces cerevisiae)
chain: MHQDFQEDEHEYPDIRRNPLHEVTMTSYILGILLGIFVGLFPQIRFKNFNLFIIALSLFHFLEYYITAKYNPLKVHSESFLLNNGKSYMAAHSFAILECLVESFLFPDLKIFSYSLATKLCTVLGCLLVILGQYTRTIAMHTAGHSFSHIVKTKKESDHVLVKTGVYSWSRHPSYLGFFWWAIGTQLLLLNPLSLVIFIFVLWKFFSDRIRVEEKYLIEFFSAEYIEYKNKVGVGIPFIDALRLNGVIGVDVSGGVETNGVKDSNKIANFVKNAKK
notes: whole, on cells; Control fusion; Ctrp fused to the cytoplasmic site of Ste14p; also called Ste14p-Ctrp; not shown: HA tag at the C terminus of Trp1p

binding result (Sec63p-^44Ctrp): binds | binding result (Ste14p-^44Ctrp): no binding
B2: ^44Ntrp-Sec62p (other, Saccharomyces cerevisiae)
chain: MSVINFTCSSGPLVKVCGLQSTEAAECALDSDADLLGIICVPNRGGSGSGSAVGPGSNAGASVNGGSATAIATLLRNHKELKQRQGLFQAKQTDFFRYKRFVRALHSEEYANKSARQPEIYPTIPSNKIEDQLKSREIFIQLIKAQMVIPVKKLHSQECKEHGLKPSKDFPHLIVSNKAQLEADEYFVWNYNPRTYMDYLIVIGVVSIILALVCYPLWPRSMRRGSYYVSLGAFGILAGFFAVAILRLILYVLSLIVYKDVGGFWIFPNLFEDCGVLESFKPLYGFGEKDTYSYKKKLKRMKKKQAKRESNKKKAINEKAEQN
notes: whole, on cells; Expressed in yeast EGY48 from pRS315CUP1 under the PCUP1-promoter; Ntrp at the N terminus of Sec62p; not shown: 6x His tag at the N-terminus of Ntrp
